In paper doi:10.1101/2020.07.24.219303:

Target: ParA (pMF1.22) co-expressed with ParC from pET15b (Myxococcus fulvus 124B02 (plasmid pMF1))
Experiment: SDS-PAGE band identified by mass spectrometry

- stoichiometry N (ParC:ParA molar ratio): 1
Substance: ParC (pMF1.21) co-expressed in front of ParA from pET15b (natural protein)
